Laboratory results reported in US7282556 (EMORY UNIVERSITY, dated 2007).
Bridges are numbered along the chain shown (N, C = ends). Where no end group is shown, it is not given here.

How the values were obtained:
[1] = target: T1, SIRPα1-GST: extracellular domain of SIRPα1 fused to GST (UniProt P78324 31-373); test: direct binding of synthetic peptide
T1 construct: extracellular domain; Produced in 293E cells as in Seiffert et al; also called SIRPα-GST; SIRP-GST; not shown: glutathione S-transferase (GST)

C5/D5 Fab = target: T2, C5/D5 Fab; test: competition ELISA: C5/D5 Fab (1 µg/ml) on coated purified CD47 with increasing peptide
T2 construct: Prepared by papain digestion of C5/D5; also called C5/D5 Fab fragment
Procedure: Figure 5: FIG. 5 is a graph that illustrates the effect of synthetic peptide C5/D5.1 ([…]) (SEQ. ID NO: 2) and control peptide C5/D5.4 ([…]) (SEQ. ID NO: 34), C5/D5.11 ([…]) (SEQ. ID NO: 36) and C5/D5.12 ([…]) (SEQ. ID NO: 6) on binding of C5/D5 Fab to CD47. CD47 was purified from human PMN or RBC as previously described (Liu, et al., Journal of Biological Chemistry, 277(12): 10028-36, 2002). The experiments were performed by coating microtiter plates with purified CD47 (in 1% octylglucoside containing buffer, used as 1:50 dilution) for 2 hour (hr). After blocking, C5/D5 Fab (1 µg/ml) was added without or with increasing amount of peptides. C5/D5 Fab binding was detected by a peroxidase conjugated goat anti-mouse secondary antibody. The data represent the mean and the standard deviation of triplicate wells.
To confirm that peptide C5/D5.1 simulates the natural epitope of CD47 recognized by mAb C5/D5, experiments were performed to test if this peptide can compete with CD47 in binding to C5/D5. Purified human CD47 from PMN and RBC was used to coat microtiter plates followed by incubation with C5/D5 Fab (1 μg/ml) either in the absence or presence of increasing amount C5/D5.1 or other control peptides. […] In contrast, control peptides, including C5/D5.11 (SEQ ID NO:36) and C5/D5.12 (SEQ ID NO:6) had no inhibition at concentrations up to 10 mM (FIG. 5). […]

[2] = target: T1, SIRPα1-GST: extracellular domain of …; test: plate binding assay, JAM-AP and SIRPα-GST

T1 sequence (P78324 31-373): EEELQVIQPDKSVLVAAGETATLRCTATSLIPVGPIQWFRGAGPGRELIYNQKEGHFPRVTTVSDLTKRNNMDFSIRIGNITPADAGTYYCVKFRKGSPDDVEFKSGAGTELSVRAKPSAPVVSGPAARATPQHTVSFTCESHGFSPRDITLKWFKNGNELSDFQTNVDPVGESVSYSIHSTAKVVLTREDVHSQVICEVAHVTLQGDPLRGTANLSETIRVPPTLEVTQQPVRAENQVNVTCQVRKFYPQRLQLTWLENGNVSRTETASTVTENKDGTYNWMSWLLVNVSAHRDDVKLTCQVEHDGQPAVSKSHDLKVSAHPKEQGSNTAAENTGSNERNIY

| binding result [1] | Binder | other results |
| --- | --- | --- |
| no binding | EVTELTREG [linear CD47 peptide comprising EVTELTREG (aa115-123 of SEQ ID NO: 9)] | – |
| – | CERVIGTGWVRC (disulfide 1-12 (inferred)) [synthetic peptide C5/D5.1 (CERVIGTGWVRC)] | IC50 (C5/D5 Fab): 3.8 mM |
| – | JAM-AP: extracellular domain of junctional adhesion molecule (JAM) fused to alkaline phosphatase (other, UniProt Q9Y624 28-238, looked up, extracellular domain; Control AP fusion protein; not shown: alkaline phosphatase (as in CD47-AP)) SVTVHSSEPEVRIPENNPVKLSCAYSGFSSPRVEWKFDQGDTTRLVCYNNKITASYEDRVTFLPTGITFKSVTREDTGTYTCMVSEEGGNSYGEVKVKLIVLVPPSKPTVNIPSSATIGNRAVLTCSEQDGSPPSEYTWFKDGIVMPTNPKSTRAFSNSSYVLNPTTGELVFDPLSASDTGEYSCEARNGYGTPMTSNAVRMEAVERNVGV | binding result [2]: no binding |
| no binding | SSAKIEVSQLLK [linear CD47 peptide comprising SSAKIEVSQLLK (aa82-93 of SEQ ID NO: 9)] | – |
